Results published in publication PMC8156467, “Disruption of YY1-EZH2 Interaction Using Synthetic Peptides Inhibits Breast Cancer Development” (Cancers, 2021).

Tested on: HA-YY1
Experiment: Co-IP of Flag-EZH2 wt/mutants with HA-YY1
Assay type: binding
Settings: OPB domain of YY1 deleted
From the text: HA-tagged expression vectors of wild-type (wt) and mutant YY1 were constructed by amplifying and subcloning the corresponding fragments of the YY1 coding region into the pcDNA3 vector. To generate EZH2 mutants, different regions of its coding sequence (1–251, 252–384, 385–618, 619–751, 385–465, 465–545, 545–618, 465–492, and 465–519) were amplified and subcloned into pGEX-4T-1 and pSL4-3×Flag plasmids to construct vectors expressing recombinant GST-EZH2 and 3×Flag-EZH2 mutants, respectively. To generate vectors expressing 3×Flag-YPB, -OPB, and -Cont (with a scrambled sequence of […]) peptides, their coding sequences were individually subcloned into a lentiviral vector pSL4 using the CMV promoter to drive the expression of 3×Flag-YPB-2A1-EGFP, 3×Flag-OPB-2A1-EGFP, and 3×Flag-Cont-2A1-EGFP. […]
Immunoprecipitations were performed as described previously. […] In Western blot studies, protein concentrations of samples were determined using the Bradford protein method, and 20 μg of proteins for each sample were separated by SDS-PAGE followed by transfer to polyvinylidene difluoride (PVDF) membranes. […]
Figure 1 Identification of YY1 binding site on EZH2 protein. […] The samples were analyzed by Western blot using EZH2 and YY1 antibodies as indicated. […]

binding of HA-YY1 (ΔOPB) to wt EZH2 in co-IP: did not show detectable binding affinity
B1: HA-YY1 (ΔOPB): YY1 mutant with the OPB domain deleted (protein)
chain: MASGDTLYIATDGSEMPAEIVELHEIEVETIPVETIETTVVGEEEEEDDDDEDGGGGDHGGGGGHGHAGHHHHHHHHHHHPPMIALQPLVTDDPTQVHHHQEVILVQTREEVVGGDDSDGLRAEDGFEDQILIPVPAPAGGDDDYIEQTLVTVAAAGKSGGGGSSSSGGGRVKKGGGKKSGKKSYLSGGAGAAGGGGADPDEKKDIDHETVVEEQIIGENSPPDYSEYMTGKKLPPGGIPGIDLSDPKQLAEFARMKPRKIKEDDAPRTIACPHKGCTKMFRDNSAMRKHLHTHGPRVHVCAECGKAFVESSKLKRHQLVHTGEKPFQCTFEGCGKRFSLDFNLRTHVRIHTGDRPYVCPFDGCNKKFAQSTNLKSHILTHAKAKNNQ
modifications: left off: HA, end not stated, kept
